Laboratory results from patent US20240270821A1, “GIP/GLP1/GCG TRI-RECEPTOR AGONISTS AND USES THEREOF” (priority 2023, published 2024).

Key:
Assay in all cases: cell-based or functional assay
[1] = molecular target: human glucagon receptor (human) (UniProt P47871)
hGLP-1R = hGLP-1R (Homo sapiens, UniProt P43220)
[2] = molecular target: T1, human GIP receptor (human) (UniProt P48546)
T1 sequence (looked up): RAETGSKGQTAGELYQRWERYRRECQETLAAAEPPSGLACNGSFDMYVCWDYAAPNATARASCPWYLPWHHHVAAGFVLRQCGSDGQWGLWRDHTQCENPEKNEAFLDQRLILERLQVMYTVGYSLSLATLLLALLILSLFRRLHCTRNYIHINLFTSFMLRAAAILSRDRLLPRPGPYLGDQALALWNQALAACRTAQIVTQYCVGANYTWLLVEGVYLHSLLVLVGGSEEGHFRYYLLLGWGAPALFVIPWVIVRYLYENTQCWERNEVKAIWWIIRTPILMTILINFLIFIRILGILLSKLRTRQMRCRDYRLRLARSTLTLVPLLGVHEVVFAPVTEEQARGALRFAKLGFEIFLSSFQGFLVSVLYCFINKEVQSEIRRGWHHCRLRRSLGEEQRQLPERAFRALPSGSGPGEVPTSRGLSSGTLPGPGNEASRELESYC

Sequence of hGLP-1R (P43220 24-463): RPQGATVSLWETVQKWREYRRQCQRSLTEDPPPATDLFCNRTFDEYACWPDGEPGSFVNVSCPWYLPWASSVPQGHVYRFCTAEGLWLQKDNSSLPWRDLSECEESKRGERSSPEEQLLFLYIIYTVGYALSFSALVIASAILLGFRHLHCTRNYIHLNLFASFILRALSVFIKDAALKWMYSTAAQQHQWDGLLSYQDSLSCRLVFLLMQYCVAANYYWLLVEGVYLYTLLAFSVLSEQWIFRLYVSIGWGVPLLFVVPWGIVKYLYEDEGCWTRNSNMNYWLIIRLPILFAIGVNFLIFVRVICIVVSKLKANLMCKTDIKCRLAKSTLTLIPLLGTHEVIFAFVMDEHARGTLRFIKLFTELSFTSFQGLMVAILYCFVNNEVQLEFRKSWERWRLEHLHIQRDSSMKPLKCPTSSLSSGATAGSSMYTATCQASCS
Sequence of human glucagon receptor (human) (P47871 26-477): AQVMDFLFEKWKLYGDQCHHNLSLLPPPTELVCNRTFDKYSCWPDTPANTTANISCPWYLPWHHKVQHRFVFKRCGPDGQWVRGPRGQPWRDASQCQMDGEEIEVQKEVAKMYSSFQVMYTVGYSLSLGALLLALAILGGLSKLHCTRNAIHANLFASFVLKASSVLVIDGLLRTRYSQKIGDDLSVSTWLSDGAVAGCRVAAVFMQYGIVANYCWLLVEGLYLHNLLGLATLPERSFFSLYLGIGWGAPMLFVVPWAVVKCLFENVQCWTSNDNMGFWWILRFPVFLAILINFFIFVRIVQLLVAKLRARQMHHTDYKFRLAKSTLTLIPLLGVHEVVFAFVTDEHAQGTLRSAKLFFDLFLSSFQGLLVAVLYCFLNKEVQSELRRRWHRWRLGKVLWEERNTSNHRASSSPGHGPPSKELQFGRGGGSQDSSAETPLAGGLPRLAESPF

Binder | Relative cAMP EC50 [1] | cAMP Rel EC50 (in the presence of 1% HSA) [1] | Relative cAMP EC50 (hGLP-1R) | cAMP Rel EC50 (in the presence of 1% HSA) (hGLP-1R) | Relative cAMP EC50 [2] | cAMP Rel EC50 (in the presence of 1% HSA) [2]
YXQGTXTSDXSILLDKKAQXAFIEYLEEGGPSSGAPPPSGGEE (non-natural residues; acylated Lys C18 diacid; C-term amide; synthetic construct; SITE 2: note = 2-Aminoisobutyric Acid; SITE 6: note = alpha-methyl-2-fluoro-L-phenylalanine; SITE 10: note = 3-(4-Pyridyl)-L-alanine; SITE 17: note = Lysine is chemically modified through conjugation of the epsilon-amino group of the Lysine side chain with (gamma-Glu)2-CO-(CH2)1) [Example 612] | 7.13 nM | 640 nM | 1.21 nM | 126 nM | 0.087 nM | 7.58 nM
YXQGTXTSDXSIXLDXKAQXEFIEXLLEGGPSSGAPPPSGE (non-natural residues, C-terminal amide, acylated Lys with fatty diacid; synthetic construct; SITE 2: note = 2-Aminoisobutyric Acid; SITE 6: note = alpha-methyl-2-fluoro-L-phenylalanine; SITE 10: note = 3-(4-Pyridyl)-L-alanine; SITE 13: note = alpha-methyl-leucine; SITE 16: note = L-ornithine; SITE 17: note = Lysine is chemically modified through conjugation of the epsil) [Example 613] | 20.4 nM | 1410 nM | 0.698 nM | 81.6 nM | 0.00925 nM | 0.791 nM
YXQGTXTSDXSIXLDXKAQXEFIEXLIEGGPSSGAPPPSGE (non-natural residues; acylated Lys; C-terminal amide; synthetic construct; SITE 2: note = 2-Aminoisobutyric Acid; SITE 6: note = alpha-methyl-2-fluoro-L-phenylalanine; SITE 10: note = 3-(4-Pyridyl)-L-alanine; SITE 13: note = alpha-methyl-leucine; SITE 16: note = L-ornithine; SITE 17: note = Lysine is chemically modified through conjugation of the epsil) [Example 614] | 6.36 nM | 724 nM | 0.251 nM | 33.2 nM | 0.0065 nM | 0.597 nM
YXQGTXTSDXSIXLDXKAQXEFIEXLLEGGPSSGAPPPSGE (Non-natural residues; K acylated AEEA-γGlu-C18 diacid; C-terminal amide; synthetic construct; SITE 2: note = 2-Aminoisobutyric Acid; SITE 6: note = alpha-methyl-2-fluoro-L-phenylalanine; SITE 10: note = 3-(4-Pyridyl)-L-alanine; SITE 13: note = alpha-methyl-leucine; SITE 16: note = L-ornithine; SITE 17: note = Lysine is chemically modified through conjugation of the epsil) [Example 615] | 3.93 nM | 697 nM | 0.575 nM | 82.9 nM | 0.00825 nM | 0.95 nM
YXQGTXTSDXSIXLDXKAQXEFIEXLIEGGPSSGAPPPSGE (Aib, alpha-methyl residues, 4Pal, Orn, D-Glu, lipidated Lys, amide; synthetic construct; SITE 2: note = 2-Aminoisobutyric Acid; SITE 6: note = alpha-methyl-2-fluoro-L-phenylalanine; SITE 10: note = 3-(4-Pyridyl)-L-alanine; SITE 13: note = alpha-methyl-leucine; SITE 16: note = L-ornithine; SITE 17: note = Lysine is chemically modified through conjugation of the epsil) [Example 616] | 6.58 nM | 734 nM | 0.29 nM | 28.9 nM | 0.00727 nM | 0.467 nM
YXQGTXTSDXSILLDKKAQXAFIEYLEEGGPSSGAPPPSGSGE (non-natural residues; lysine acylated with (γ-Glu)2-C18 diacid; C-terminal amide; synthetic construct; SITE 2: note = 2-Aminoisobutyric Acid; SITE 6: note = alpha-methyl-2-fluoro-L-phenylalanine; SITE 10: note = 3-(4-Pyridyl)-L-alanine; SITE 17: note = Lysine is chemically modified through conjugation of the epsilon-amino group of the Lysine side chain with (gamma-Glu)2-CO-(CH2)1) [Example 618] | 5.57 nM | 691 nM | 1.53 nM | 88.9 nM | 0.0418 nM | 4.63 nM
YXQGTXTSDXSILLDKKAQXAFIEYLEEGGPSSGAPPPSGGGE (non-natural residues; lipidated Lys; C-terminal amide; synthetic construct; SITE 2: note = 2-Aminoisobutyric Acid; SITE 6: note = alpha-methyl-2-fluoro-L-phenylalanine; SITE 10: note = 3-(4-Pyridyl)-L-alanine; SITE 17: note = Lysine is chemically modified through conjugation of the epsilon-amino group of the Lysine side chain with (gamma-Glu)2-CO-(CH2)1) [Example 619] | 6.34 nM | 819 nM | 0.992 nM | 94 nM | 0.0685 nM | 6.78 nM
YXQGTXTSDXSILLDKKAQXAFIEYLEEGGPSSGAPPPSGAGE (non-natural residues, acylated Lys, C-terminal amide; synthetic construct; SITE 2: note = 2-Aminoisobutyric Acid; SITE 6: note = alpha-methyl-2-fluoro-L-phenylalanine; SITE 10: note = 3-(4-Pyridyl)-L-alanine; SITE 17: note = Lysine is chemically modified through conjugation of the epsilon-amino group of the Lysine side chain with (gamma-Glu)2-CO-(CH2)1) [Example 620] | 8.26 nM | 665 nM | 0.981 nM | 90.7 nM | 0.0706 nM | 5.96 nM
YXQGTXTSDXSILLDKKAQXAFIEYLEEGGPSSGAPPPSGEGE (non-natural residues; Lys acylated (γGlu)2-C18 diacid; C-terminal amide; synthetic construct; SITE 2: note = 2-Aminoisobutyric Acid; SITE 6: note = alpha-methyl-2-fluoro-L-phenylalanine; SITE 10: note = 3-(4-Pyridyl)-L-alanine; SITE 17: note = Lysine is chemically modified through conjugation of the epsilon-amino group of the Lysine side chain with (gamma-Glu)2-CO-(CH2)1) [Example 621] | 6.81 nM | 901 nM | 1.28 nM | 111 nM | 0.0661 nM | 7.31 nM
YXQGTXTSDXSIXLDKKAQXAFIEYLEEGGPSSGAPPPSGTGE (Aib, αMeF(2F), 4Pal, αMeL; acylated lysine; amide; synthetic construct; SITE 2: note = 2-Aminoisobutyric Acid; SITE 6: note = alpha-methyl-2-fluoro-L-phenylalanine; SITE 10: note = 3-(4-Pyridyl)-L-alanine; SITE 13: note = alpha-methyl-leucine; SITE 17: note = Lysine is chemically modified through conjugation of the epsilon-amino group of the Lysine) [Example 622] | 7.7 nM | 641 nM | 0.776 nM | 52.3 nM | 0.0148 nM | 1.19 nM
YXQGTXTSDXSIXLDKKAQXAFIEYLEEGGPSSGAPPPSGEGE (Lys acylated with (γGlu)2-C18 diacid; non-natural residues; C-amide; synthetic construct; SITE 2: note = 2-Aminoisobutyric Acid; SITE 6: note = alpha-methyl-2-fluoro-L-phenylalanine; SITE 10: note = 3-(4-Pyridyl)-L-alanine; SITE 13: note = alpha-methyl-leucine; SITE 17: note = Lysine is chemically modified through conjugation of the epsilon-amino group of the Lysine) [Example 623] | 7.94 nM | 832 nM | 0.907 nM | 62.2 nM | 0.0224 nM | 1.48 nM
YXQGTXTSDXSIXLDKKAQXAFIEYLEEGGPSSGEPPPSGTGE (non-natural residues, C18 diacid acylation, C-terminal amide; synthetic construct; SITE 2: note = 2-Aminoisobutyric Acid; SITE 6: note = alpha-methyl-2-fluoro-L-phenylalanine; SITE 10: note = 3-(4-Pyridyl)-L-alanine; SITE 13: note = alpha-methyl-leucine; SITE 17: note = Lysine is chemically modified through conjugation of the epsilon-amino group of the Lysine) [Example 624] | 8.42 nM | 808 nM | 0.95 nM | 63.4 nM | 0.0222 nM | 1.17 nM
YXQGTXTSDXSIXLDKKAQXAFIEYLEEGGPSSGEPPPSGEGE (non-natural residues; lipidated Lys; C-terminal amide; synthetic construct; SITE 2: note = 2-Aminoisobutyric Acid; SITE 6: note = alpha-methyl-2-fluoro-L-phenylalanine; SITE 10: note = 3-(4-Pyridyl)-L-alanine; SITE 13: note = alpha-methyl-leucine; SITE 17: note = Lysine is chemically modified through conjugation of the epsilon-amino group of the Lysine) [Example 625] | 8.53 nM | 657 nM | 1.16 nM | 72.1 nM | 0.0291 nM | 1.81 nM
